B1: 2G12 Fab2 (Fab, V domains shown)
VH: EVQLVESGGGLVKAGGSLILSCGVSNFRISAHTMNWVRRVPGGGLEWVASISTSSTYRDYADAVKGRFTVSRDDLEDFVYLQMHKMRVEDTAIYYCARKGSDRLSDNDPFDAWGPGTVVTVSP
VL: DVVMTQSPSTLSASVGDTITITCRASQSIETWLAWYQQKPGKAPKLLIYKASTLKTGVPSRFSGSGSGTEFTLTISGLQFDDFATYHCQHYAGYSATFGQGTRVEIK
notes: also called 2G12 bnAb; copies: 2 + 2

Columns and labels:
Assay in all cases: BLI
[1] = target: BG505 SOSIP.v4.1-2XStrep N332 N392Q (HIV-1 (BG505))
[2] = target: BG505 SOSIP.v4.1-2XStrep N332 N363Q (HIV-1 (BG505))
[3] = target: BG505 SOSIP.v4.1-2XStrep N332 N339Q (HIV-1 (BG505))
[4] = target: BG505 SOSIP.v4.1-2XStrep (N332) (HIV-1 (BG505))
[5] = target: BG505 SOSIP.v4.1-2XStrep N332 N295Q (HIV-1 (BG505))
[6] = target: BG505 SOSIP.v4.1-2XStrep N332 N386Q (HIV-1 (BG505))
[7] = target: BG505 SOSIP.v4.1-2XStrep T332 (HIV-1 subtype A, BG505, UniProt Q2N0S6, stabilised); details: both partners purified

Row | Molecule | Kd [1] [nM] | Kd [2] [nM] | Kd [3] [nM] | Kd [4] [nM] | Kd [5] [nM] | Kd [6] [nM] | Kd [7] [nM] | koff [7] [s⁻¹] | kon [7] [M⁻¹ s⁻¹]
1 | 2G12 Fab2 | 16.8 | 3.99 | 7.35 | 4.25 | 11.4 | 3.15 | – | – | –
2 | B1 | – | – | – | – | – | – | 22.9 | 0.00558 | 244000

— publication PMC7416112 (Structure(London, England:1993), 2020)
